Measurements from US20210138066A1, “REMOTE-CONTROLLED IMAGE-GUIDED DRUG DELIVERY VIA ULTRASOUND-MODULATED MOLECULAR DIFFUSION” (California Institute of Technology, priority 2019, published 2021).

Assay: Payloads added to the reservoir: Stokes' diameter
Type: physicochemical

## Adalimumab
  Stokes' Diameter: 10 nm
